Measurements reported in the DeepSol protein solubility set.

Test: soluble on expression in E. coli; label from the status in PepcDB or PDB records

Row | Sequence | soluble on expression in E. coli
1 | MAELQKVDDWLSALLANLEPAARSRMMRQLAQELRRTQQQNIRMQRNPDGSSYEPRRVTARSKKGRIKRQMFAKLRTTKYLKTAASADSASVQFEGKVQSIARVHHYGLRDRVSRKGPEVRYAERRLLGVNDDVEAMTRDMILQWLAG | not soluble
2 | MAELRVLVAVKRVIDYAVKIRVKPDRTGVVTDGVKHSMNPFCEIAVEEAVRLKEKKLVKEVIAVSCGPAQCQETIRTALAMGADRGIHVEVPPAEAERLGPLQVARVLAKLAEKEKVDLVLLGKQAIDDDCNQTGQMTAGFLDWPQGTFASQVTLEGDKLKVERAIDGGLETLRLKLPAVVTADLRLNEPRYATLPNIMKAKKKKIEVIKPGDLGVDLTSKLSVISVEDPPQRTAGVKVETTEDLVAKLKEIGRI | soluble
3 | MAEPTAKAAPYENLMVPSPSMGRDIPVAFLAGGPHAVYLLDAFNAGPDVSNWVTAGNAMNTLAGKGISVVAPAGGAYSMYTNWEQDGSKQWDTFLSAELPDWLAANRGLAPGGHAAVGAAQGGYGAMALAAFHPDRFGFAGSMSGFLYPSNTTTNGAIAAGMQQFGGVDTNGMWGAPQLGRWKWHDPWVHASLLAQNNTRVWVWSPTNPGASDPAAMIGQAAEAMGNSRMFYNQYRSVGGHNGHFDFPASGDNGWGSWAPQLGAMSGDIVGAIRHHHHHH | soluble
4 | MAESSDKLYRVEYAKSGRASCKKCSESIPKDSLRMAIMVQSPMFDGKVPHWYHFSCFWKVGHSIRHPDVEVDGFSELRWDDQQKVKKTAEAGG | soluble
5 | MAEYEFMYIHSLAEHYLQYVLQVPAFESAPSQACRVLQRVAFSVQKEVEKNLKSYLDDFHVESIDTARIIFNQVMEKEFEDGIINWGRIVTIFAFGGVLLKKLPQEQIALDVGAYKQVSSFVAEFIINNTGEWIRRNGGWEDGFIKKFEPKSGWLTFLQMTGQIWEMLFLLK | not soluble
6 | MAFKNTKTLVFVLDGKLRNIPIAALFDGQQYLIEKYAVALSPGLQLMAAQSLEQNKIKAIVAGISESRSGFAALPAVESEVKQISQTIPSSMLLNQKFTSQALADRIKSSRADVVHLATHGQFSSRIEDTFLLTWDGQVNVKDLSELLKNRSGDSSKAIELLVLSACDTATGDDRAVLGLAGLAVKSGARSTIATLWPVKDKAAEMLMTRFYDQLRKPKITKAEALRQAQINLIHQTDFQDPFFWSAFVLVGNWLLEHHHHHH | not soluble
7 | MAFLLALDQGTTSSRAILFTLEGRPVAVAKREFRQLYPKPGWVEHDPLEIWETTLWAAREVLRRAGAEAGEVLALGITNQRETTLLWDRKTGKPLHNAIVWQDRRTTPLCEALRAKGLEPLFRERTGLLFDPYFSGTKLVWLLENVPGLKARAEGGGVAFGTVDTWLIWNLTGGKVHATDPTNASRTLLFNLHTLAWDPELLEALGIPAALLPEVRPSDGDFGETLPELLGAPVPIRGVLGDQQAALFGQAALGGGEGKCTYGTGAFLLLNTGKRPVLSEKGLLATVAWSLGGRATYALEGSLFVAGAAVGWLKEVGLIRESAEVEALAASVEDTGDVYFVPAFTGLGAPYWDPYARGTLLGLTRGTSRAHLARAALEGVAFQVRDVVLAMEEEAGVRLKVLKADGGMAQNRLFLKIQADLLGVPVAVPEVTETTALGAALMAGVGAGALSPEDVAGRFREAERFLPTMPEGRREALYRRWREAVERAKGWAREG | soluble
8 | MAFRVLVIGGYGNFGSLICNHLAMMPDIELVISGRDPRKLAEKVAALQTLAGRFCQSWCVDIMQDGAGSELGELGIDLLIHTAGPFQGQSYAVARHCIAAGVNYCDLSDCRTFVSGIATLDALAREAGVCVLSGCSSVPTLSAAIIDQHRQRFLRIDSIEHGISSAAKMPGLSTVR | not soluble
9 | MAFSASIEDYALIGDQQSAALVARDGSIDWLCLPRFDSPACFAALLGDEHNGKWRIAPKGAGPCTRRAYRTDSLVLDSEWDTPEGTLRVTDLMPQRDSAPDLVRIVEGLRGRVTVRSAIRLRFDYGLEHHHHHH | not soluble
10 | MAFSRTHSLLARAGSTSTYKRVWRYWYPLMTRGLGNDEIVFINWAYEEDPPMDLPLEASDEPNRAHINLYHRTATQVDLGGKQVLEVSCGHGGGASYLTRTLHPASYTGLDLNQAGIKLCKKRHRLPGLDFVRGDAENLPFDDESFDVVLNVEASHCYPHFRRFLAEVVRVLRPGGYFPYADLRPNNEIAAWEADLAATPLRQLSQRQINAEVLRGIGNNSQKSRDLVDRHLPAFLRFAGREFIGVQGTQLSRYLEGGELSYRMYCFTKD | not soluble
11 | MAFTEHSPLTPHRRDLCSRSIWLARKIRSDLTALTESYVKHQGLNKNINLDSADGMPVASTDQWSELTEAERLQENLQAYRTFHVLLARLLEDQQVHFTPTEGDFHQAIHTLLLQVAAFAYQIEELMILLEYKIPRNEADGMPINVGDGGLFEKKLWGLKVLQELSQWTVRSIHDLRFISSHQTGIP | soluble
12 | MAGDPMKKQFLEKAVFTVAATAATVVLGNKMADADTYTLQEGDSFFSVAQRYHMDAYELASMNGKDITSLILPGQTLTVNGSAAPDNQAAAPTDTTQATTETNDANANTYPVGQCTWGVKAVATWAGDWWGNGGDWASSASAQGYTVGNTPAVGSIMCWTDGGYGHVAYVTAVGEDGKVQVLESNYKDQQWVDNYRGWFDPNNSGTPGSVSYIYPNLEHHHHHH | soluble
13 | MAGDPMKKTLTVTVSSVLAFLALNNAAHAQQHGTQVKTPVQHNYVSNVQAQTQSPTTYTVVAGDSLYKIALEHHLTLNQLYSYNPGVTPLIFPGDVISLVPQNKVKQTKAVKTPVRKASQAKKVVKQPVQQASKKVVVKQAPKQAVAKTVNVAYKPAQVQKSVPTVPVAHNYNKSVANRGNLYAYGNCTYYAFDRRAQLGRSIGSLWGNANNWNYAAKVAGFKVDKTPEVGAIFQTAAGPYGHVGVVESVNPNGTITVSEMNYAGFNVKSSRTILNPGKYNYIHLEHHHHHH | not soluble
14 | MAGDPMLKQLKKVIITTAIALATLCSTQAFAETNPYLLMQKTADKLFTNIKNNQTKIKANPEYLRDIVREDLMSYVHIRYAGQLVLGKSLSSVSEPQREKFFNAFGKFIEQAYAQILTQYEDQQIQIENEKPLGDKSIVSIRVNVLSSGSTPPIKLDFKWRKNSKTGEWQAYDMAAEGVSMVATKQNEWSNILRQQGIDALTNQVEKAAKQPITLNKLEHHHHHH | soluble
15 | MAGEGQIRLTDSCVQRLLEITEGSEFLRLQVEGGGCSGFQYKFSLDTVINPDDRVFEQGGARVVVDSDSLAFVKGAQVDFSQELIRSSFQVLNNPQAQQGCSCGSSFSIKL | soluble
16 | MAGILHNEGVKVAITTDHPVTRIQDLLICAGLAAKEGLGIEEGLKAITINPAEICNVANRVGSIEVNKDADIAIFDGNPMETFTKTMYTIINGEIVYSLKDLEHHHHHH | not soluble
17 | MAGISLLLDQAFHRHFADFFTLRSVDNRVLLNLASPRHQLAKQSLVLLAKCCFLFHLSVSISNFPTVYPTRSTIDRFKRIFPHSPRVNADLSSSSWQTSRRNYCDHALEEYVDKIFVDEAVNELQTIQDILRWSVSRFSAANIWYGHGTDNPWDEAVQLVLPSLYLPLDIPEDMRTARLTSSEKHRIVERVIRRVNERIPVAYLTNKAWFCGHEFYVDERVLVPRSPIGELINNKFAGLISKQPQHILDMCTGSGCIAIACAYAFPEAEVDAVDISPDALAVAEQNIEEHGLIHNVIPIRSDLFRDLPKVQYDLIVTNPPYVDAEDMSDLPNEYRHEPELGLASGTDGLKLTRRILGNAADYLADDGVLICEVGNSMVHLMEQYPDVPFTWLEFDNGGDGVFMLTKEQLIAAREHFAIYKD | not soluble
18 | MAGKVKWVTDIEKSVLINNFEKRGWIQVTDSEDWNFYWMSIQTIRTVFSVDTGYRLTDDQMVNHFPNHYELTRKDLMIKNIKRYRRELEKENSALAEKDDSGKYIYLDFVPVTFMLPADYNLFVEEFRKSPSSTWIMKPCGKAQGKGIFLINKLSQIKKWSRDSRTSTFVAANSGKEAYVISLYIDNPLLIGGKKFDLRLYVLVTTYRPLKCYMWVQESSE | not soluble
19 | MAGLPDQRLANEALKRGDTVTAQQNYQQLAELGYSEAQVGLADIQVGTRDPAQIKQAEATYRAAADTSPRAQARLGRLLAAKPGATEAEHHEAESLLKKAFANGEGNTLIPLAMLYLQYPHSFPNVNAQQQISQWQAAGYPEAGLAQVLLYRTQGTYDQHLDDVERICKAALNTTDICYVELATVYQKKQQPEQQAELLKQMEAGVSRGTVTAQRVDSVARVLGDATLGTPDEKTAQALLEKIAPGYPASWVSLAQLLYDFPELGDVEQMMKYLDNGRAADQPRAELLLGKLYYEGKWVPADAKAAEAHFEKAVGREVAADYYLGQIYRRGYLGKVYPQKALDHLLTAARNGQNSADFAIAQLFSQGKGTKPDPLNAYVFSQLAKAQDTPEANDLATQLEAPLTPAQRAEGQRLVQQELAARGTLAQSTLQLHALQEEDGEESLLEHHHHHH | soluble
20 | MAGMNTENENRVEALEVRLAFQDELLDALNATVARQQKEIDLLQQQIRLLYQQFRNAQPDDAPGGSLRDDIPPHY | not soluble
21 | MAGPQQQPPYLHLAELTASQFLEIWKHFDADGNGYIEGKELENFFQELEKARKGSGMMSKSDNFGEKMKEFMQKYDKNSDGKIEMAELAQILPTEENFLLCFRQHVGSSTEFMEAWRKYDTDRSGYIEANELKGFLSDLLKKANRPYDEPKLQEYTQTILRMFDLNGDGKLGLSEMSRLLPVQENFLLKFQGMKLTSEEFNAIFTFYDKDRSGYIDEHELDALLKDLYEKNKKEMNIQQLTNYRKSVMSLAEAGKLYRKDLEIVLCSEPPM | not soluble
22 | MAGRKEEELKDLTLLGNQGTTYSFTYNPNLLEVFDNKHPDRDYFVKFNCPEFTTLCPKTGQPDFATIYITYIPDKKCVESKSLKLYLFSFRNHGDFHEDCVNIIMNDLIKVMEPRYIEVWGKFTPRGGISIDPYCNWGRPGTKYEKMAEYRLLNHDLYPEKVDNR | not soluble
23 | MAGRRRWSTEQILDAAAELLLAGDAETFSVRKLAASLGTDSSSLYRHFRNKTELLRAVADRILLSAMDGYRPEGDWKQRLTAVALRLRESFGQQPQLAAVWGRHGSGGTGSRLMMEEVLQALRASGLPDDEIPARYHRLVILISSLITAEGGFGAVGAQEHEQGMEQFRVAVLGADPERFPALSHFAREIRPLGADRGAAFEEILAAHLAHLEAAAP | soluble
24 | MAHHHHHHGAYDVARVRGLHPSLGDGWVHFDAPAGMLIPDSVATTVSTAFRRSGASTVGAHPSARRSAAVLDAAREAVADLVNADPGGVVLGADRAVLLSLLAEASSSRAGLGYEVIVSRLDDEANIAPWLRAAHRYGAKVKWAEVDIETGELPTWQWESLISKSTRLVAVNSASGTLGGVTDLRAMTKLVHDVGALVVVDHSAAAPYRLLDIRETDADVVTVNAHAWGGPPIGAMVFRDPSVMNSFGSVSTNPYATGPARLEIGVHQFGLLAGVVASIEYLAALDESARGSRRERLAVSMQSADAYLNRVFDYLMVSLRSLPLVMLIGRPEAQIPVVSFAVHKVPADRVVQRLADNGILAIANTGSRVLDVLGVNDVGGAVTVGLAHYSTMAEVDQLVRALASLG | soluble
